One block for each substance: values may come before it.
Target: R499D-quad-PDE4D5
Assay: yeast two-hybrid, quantitative β-galactosidase assay
Conditions: parent: est. 18, read off a plot

response (bar labelled DD1 sequence RAA): 7.1 arbitrary
Substance: PDE4D5 (wild-type, full-length; "long") (from UniProt Q08499-6) binder:N174A; binder:N175A; target:R173A; target:N174A; target:N175A; target:E228A; target:T229A; target:L230A; target:L306A; target:M307A; target:H308A; target:K323A; target:T324A; target:E325A; target:R499D

response (bar labelled DD1 sequence AAA): 1.1 arbitrary
Substance: PDE4D5 (wild-type, full-length; "long") (from UniProt Q08499-6) binder:R173A; binder:N174A; binder:N175A; target:R173A; target:N174A; target:N175A; target:E228A; target:T229A; target:L230A; target:L306A; target:M307A; target:H308A; target:K323A; target:T324A; target:E325A; target:R499D

response (bar labelled DD1 sequence ANN): 5.4 arbitrary
Substance: PDE4D5 (wild-type, full-length; "long") (from UniProt Q08499-6) binder:R173A; target:R173A; target:N174A; target:N175A; target:E228A; target:T229A; target:L230A; target:L306A; target:M307A; target:H308A; target:K323A; target:T324A; target:E325A; target:R499D

response (bar labelled DD1 sequence RAN): 1.9 arbitrary
Substance: PDE4D5 (wild-type, full-length; "long") (from UniProt Q08499-6) binder:N174A; target:R173A; target:N174A; target:N175A; target:E228A; target:T229A; target:L230A; target:L306A; target:M307A; target:H308A; target:K323A; target:T324A; target:E325A; target:R499D

response (bar labelled DD1 sequence ANA): 0.9 arbitrary
Substance: PDE4D5 (wild-type, full-length; "long") (from UniProt Q08499-6) binder:R173A; binder:N175A; target:R173A; target:N174A; target:N175A; target:E228A; target:T229A; target:L230A; target:L306A; target:M307A; target:H308A; target:K323A; target:T324A; target:E325A; target:R499D

response (bar labelled DD1 sequence RNA): 5.1 arbitrary
Substance: PDE4D5 (wild-type, full-length; "long") (from UniProt Q08499-6) binder:N175A; target:R173A; target:N174A; target:N175A; target:E228A; target:T229A; target:L230A; target:L306A; target:M307A; target:H308A; target:K323A; target:T324A; target:E325A; target:R499D
